In assay [1] the target is T1, Human full length B7-H3 (human, UniProt Q5ZPR3 29-534).
T1 construct: On 3T12 fibroblasts expressing full length human B7-H3 or on NCI-H1650 cells; signal peptide residues 1-28 stated; also called huB7-H3; CD276
T1 sequence: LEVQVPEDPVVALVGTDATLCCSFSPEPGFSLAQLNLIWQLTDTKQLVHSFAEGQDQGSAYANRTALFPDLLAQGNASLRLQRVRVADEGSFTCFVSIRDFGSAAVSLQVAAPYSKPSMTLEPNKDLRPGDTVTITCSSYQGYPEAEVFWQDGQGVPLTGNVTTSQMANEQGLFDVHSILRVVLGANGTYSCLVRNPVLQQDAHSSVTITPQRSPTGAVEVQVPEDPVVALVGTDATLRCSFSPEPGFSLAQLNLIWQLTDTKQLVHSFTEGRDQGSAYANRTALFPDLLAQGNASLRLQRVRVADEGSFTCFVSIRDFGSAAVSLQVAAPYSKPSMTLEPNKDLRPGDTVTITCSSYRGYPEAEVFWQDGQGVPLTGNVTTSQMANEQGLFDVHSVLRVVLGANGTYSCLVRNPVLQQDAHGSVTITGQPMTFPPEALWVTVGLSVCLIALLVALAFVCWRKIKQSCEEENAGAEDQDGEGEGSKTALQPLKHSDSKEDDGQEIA
Briefly: FACS, 3T12 transfectants. The protocol: (§1) A selection of hits were subcloned using the MoFlo (Beckman, Indianapolis, Ind., US) by depositing a single cell per well into 96 well cell culture plates to ensure clonality of the cell line. Resulting colonies were screened for specificity by FACS using mouse 3T12 fibroblast cell lines expressing the human B7-H3, cynomolgous B7-H3 or mouse B7-H3. Isotype of each monoclonal antibody was determined using the Mouse Monoclonal Isostyping Kit (Roche, No. 11-493-027-001, Indianapolis, Ind., USA).
(In flow cytometry, cells or beads pass a laser one at a time.)

Assay [2] concerns the target T2, Cynomolgous B7-H3 on cells (cynomolgus).
T2 construct: whole, on cells; also called cyB7-H3; cyno B7-H3
The assay can be described thus: FACS, 3T12 transfectants. As to the method:
as §1

Assay [3] deals with T3, Mouse B7-H3 on cells (mouse, UniProt Q8VE98 29-316).
T3 construct: whole, on cells
T3 sequence (looked up): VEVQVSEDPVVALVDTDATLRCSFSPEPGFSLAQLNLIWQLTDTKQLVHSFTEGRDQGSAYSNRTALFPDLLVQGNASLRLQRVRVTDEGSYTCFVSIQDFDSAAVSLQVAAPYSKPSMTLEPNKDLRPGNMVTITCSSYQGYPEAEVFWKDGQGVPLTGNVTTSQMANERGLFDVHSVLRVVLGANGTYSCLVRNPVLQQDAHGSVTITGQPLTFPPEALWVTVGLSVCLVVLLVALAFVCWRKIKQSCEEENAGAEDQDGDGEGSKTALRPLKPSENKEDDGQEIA
The assay can be described thus: FACS, 3T12 transfectants. The protocol: as §1

For assay [4], the target named is T4, Human B7-H3-ECD (His tag) (human, UniProt Q5ZPR3 29-461).
T4 construct: SPR analyte; also called huB7-H3; soluble ECD of human B7-H3
T4 sequence: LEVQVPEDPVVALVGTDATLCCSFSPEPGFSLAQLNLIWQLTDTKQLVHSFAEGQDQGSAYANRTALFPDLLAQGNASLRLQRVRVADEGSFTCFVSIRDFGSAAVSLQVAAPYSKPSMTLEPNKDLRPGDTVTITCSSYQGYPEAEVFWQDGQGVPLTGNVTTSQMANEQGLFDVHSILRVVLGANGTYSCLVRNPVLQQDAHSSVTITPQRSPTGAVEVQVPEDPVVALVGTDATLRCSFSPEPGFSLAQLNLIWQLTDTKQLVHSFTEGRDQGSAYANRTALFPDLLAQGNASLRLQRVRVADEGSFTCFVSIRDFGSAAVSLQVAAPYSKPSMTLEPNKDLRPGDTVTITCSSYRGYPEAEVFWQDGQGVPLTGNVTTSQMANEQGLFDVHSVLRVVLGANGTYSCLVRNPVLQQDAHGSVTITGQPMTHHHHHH
Briefly: SPR, mAb captured, ECD analyte. (Surface plasmon resonance follows binding to a sensor surface in real time, without labels.)

Assay [5] has as its target T5, Cyno B7-H3-ECD (his tag) (cynomolgus).
T5 construct: SPR analyte; also called soluble ECD of cyno B7-H3
T5 chain: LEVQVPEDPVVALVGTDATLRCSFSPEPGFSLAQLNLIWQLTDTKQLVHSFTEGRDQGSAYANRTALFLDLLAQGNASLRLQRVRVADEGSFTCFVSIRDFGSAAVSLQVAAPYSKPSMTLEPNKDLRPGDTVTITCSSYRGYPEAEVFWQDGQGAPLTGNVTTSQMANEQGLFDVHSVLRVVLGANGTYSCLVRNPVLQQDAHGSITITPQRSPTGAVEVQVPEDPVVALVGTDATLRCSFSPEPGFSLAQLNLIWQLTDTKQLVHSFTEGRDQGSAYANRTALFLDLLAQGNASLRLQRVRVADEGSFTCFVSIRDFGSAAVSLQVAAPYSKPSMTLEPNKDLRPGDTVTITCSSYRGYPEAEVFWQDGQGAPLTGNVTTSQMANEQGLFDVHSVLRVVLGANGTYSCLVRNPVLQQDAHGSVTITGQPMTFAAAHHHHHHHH
The assay can be described thus: SPR, mAb captured, ECD analyte.

For assay [6], the target named is T1, Human full length B7-H3. The assay can be described thus: cell-based or functional assay.

Bounds are passed on as bounds.

B1: Ab4 (antibody, mouse IgG2b, V domains shown)
VH: QVQLQQPGAELVKPGASVKLSCKASGYSFTSYWMHWVKQRPGQGLEWIGMIHPNSGSNNYNEKFKSKATLTVDKSSNTAYMQLSSLTSEDSAVYYCARRLGLHFDYWGQGTTLTVSS
VL: DIVMTQSQKFMSTPVGDRVSITCKASQNVGTAVAWYQQKPGQSPKLLIYSASNRYTGVPDRFTGSGSGTDFTLTISNMQSEDLADYFCQQYSSYPYTFGGGTKLEIK
notes: mouse IgG2b/k
For orientation: EC50 means the concentration needed to bring the measured effect to its halfway point. Read a low EC50 as greater potency. The term Kd denotes a measure of binding affinity in units of concentration. Usually koff stands for a measure of how fast the partners let go of each other. The kon is a measure of how fast the partners come together. A low value points to slower complex formation. As for B1, the values for the EC50 in assay [1], in assay [2] and in assay [3] were 4.06 nM, 3.1 nM and 1.75 nM, respectively. Further, the Kd was found to be 1.6 nM in assay [4] and 1.8 nM in assay [5]. Also, the values for the koff in assay [4] and in assay [5] were 0.0011 s⁻¹ and 0.00096 s⁻¹, respectively. For the same molecule, the figures for the kon in assay [4] and in assay [5] were 690000 M⁻¹ s⁻¹ and 540000 M⁻¹ s⁻¹, respectively.

B2: Ab7 (antibody, mouse IgG1, V domains shown)
VH: EVQLVESGENLVKPGGSLKLSCAASGFSFRGYGMSWVRQTPDKRLEWVAAISTGGNYTYYPDSVQGRFTISRDNANNTLYLQMSSLKSEDTAMYYCARRGGNYAGFAYWGQGTLVTVSA
VL: DIQMTQSPASLSVSVGETVTITCRPSENIYSNLAWYQQKQGKSPQLLVYAATNLADGVPSRFSGSGSGTQYSLKINSLQSEDFGTYYCQHFWGTPFTFGSGTKLEIK
notes: mouse IgG1/k
With B2, the EC50 amounted to 3.22 nM in assay [1], 2.67 nM in assay [2] and 67.1 nM in assay [3]. The binding result in assay [5] was “binds”.

B3: Ab9 (antibody, V domains shown)
VH: QVQLQQSGAEVKKPGSSVKVSCKASGGTFSSYAISWVRQAPGQGLEWMGGIIPILGIANYAQKFQGRVTITADESTSTAYMELSSLRSEDTAVYYCARGGSGSYHMDVWGKGTTVTVSS
VL: EIVLTQSPATLSLSPGERATLSCRASQSVSSYLAWYQQKPGQAPRLLIYDASNRATGIPARFSGSGSGTDFTLTISSLEPEDFAVYYCQQRSNWPPRITFGQGTRLEIKR
As to B3, the EC50 was determined as 4.49 nM in assay [1], 259 nM in assay [2] and 0.72 nM in assay [3]. Also, the Kd in assay [4] was 17 nM. The molecule further displayed a koff in assay [4] of 0.0011 s⁻¹. This molecule showed a kon in assay [4] of 66000 M⁻¹ s⁻¹.

B4: huAb3v2.6-SE (antibody, human IgG1, kappa, L234A L235A, V domains shown)
VH: EVQLVQSGAEVKKPGSSVKVSCKASGYTFSSYWMHWVRQAPGQGLEWIGLIHPESGSTNYNEMFKNRATLTVDRSTSTAYMELSSLRSEDTAVYYCAGGGRLYFDYWGQGTTVTVSS
VL: DIVMTQSPLSLPVTPGEPASISCRSSQSLVHSNQDTYLRWYLQKPGQSPQLLIYKVSNRFSGVPDRFSGSGSGTDFTLKISRVEAEDVGVYYCSQSTHVPYTFGGGTKVEIKR
modifications: synthon SE on reduced interchain Cys
Regarding B4, the “EC50 nM H1650 (tumor cell cytotoxicity)” value in assay [6] is 1.01 nM.

B5: huAb3v2.6-KZ (antibody, human IgG1, kappa, L234A L235A, V domains shown)
VH: EVQLVQSGAEVKKPGSSVKVSCKASGYTFSSYWMHWVRQAPGQGLEWIGLIHPESGSTNYNEMFKNRATLTVDRSTSTAYMELSSLRSEDTAVYYCAGGGRLYFDYWGQGTTVTVSS
VL: DIVMTQSPLSLPVTPGEPASISCRSSQSLVHSNQDTYLRWYLQKPGQSPQLLIYKVSNRFSGVPDRFSGSGSGTDFTLKISRVEAEDVGVYYCSQSTHVPYTFGGGTKVEIKR
modifications: synthon KZ on reduced interchain Cys
Consider B5, for which the “EC50 nM H1650 (tumor cell cytotoxicity)” value in assay [6] came out at 5.52 nM.

B6: huAb3v2.6-YG (antibody, human IgG1, kappa, L234A L235A, V domains shown)
VH: EVQLVQSGAEVKKPGSSVKVSCKASGYTFSSYWMHWVRQAPGQGLEWIGLIHPESGSTNYNEMFKNRATLTVDRSTSTAYMELSSLRSEDTAVYYCAGGGRLYFDYWGQGTTVTVSS
VL: DIVMTQSPLSLPVTPGEPASISCRSSQSLVHSNQDTYLRWYLQKPGQSPQLLIYKVSNRFSGVPDRFSGSGSGTDFTLKISRVEAEDVGVYYCSQSTHVPYTFGGGTKVEIKR
modifications: synthon YG on reduced interchain Cys
Regarding B6, in assay [6], the “EC50 nM H1650 (tumor cell cytotoxicity)” value was 0.68 nM.

B7: huAb3v2.6-SR (antibody, human IgG1, kappa, L234A L235A, V domains shown)
VH: EVQLVQSGAEVKKPGSSVKVSCKASGYTFSSYWMHWVRQAPGQGLEWIGLIHPESGSTNYNEMFKNRATLTVDRSTSTAYMELSSLRSEDTAVYYCAGGGRLYFDYWGQGTTVTVSS
VL: DIVMTQSPLSLPVTPGEPASISCRSSQSLVHSNQDTYLRWYLQKPGQSPQLLIYKVSNRFSGVPDRFSGSGSGTDFTLKISRVEAEDVGVYYCSQSTHVPYTFGGGTKVEIKR
modifications: synthon SR on reduced interchain Cys
Regarding B7, the “EC50 nM H1650 (tumor cell cytotoxicity)” value in assay [6] came to 0.71 nM.

B8: huAb13v1-AAD (antibody, human IgG1, kappa, L234A L235A, V domains shown)
VH: EVQLQESGPGLVKPSETLSLTCAVTGYSITSGYSWHWIRQFPGNGLEWMGYIHSSGSTNYNPSLKSRISISRDTSKNQFFLKLSSVTAADTAVYYCAGYDDYFEYWGQGTTVTVSS
VL: DIQMTQSPSSLSASVGDRVTITCKASQNVGFNVAWYQQKPGKSPKALIYSASYRYSGVPSRFSGSGSGTDFTLTISSLQPEDFAEYFCQQYNWYPFTFGQGTKLEIKR
modifications: synthon AAD on reduced interchain Cys
B8: the “EC50 nM H1650 (tumor cell cytotoxicity)” value in assay [6] was 0.21 nM.

B9: huAb13v1-ZZ (antibody, human IgG1, kappa, L234A L235A, V domains shown)
VH: EVQLQESGPGLVKPSETLSLTCAVTGYSITSGYSWHWIRQFPGNGLEWMGYIHSSGSTNYNPSLKSRISISRDTSKNQFFLKLSSVTAADTAVYYCAGYDDYFEYWGQGTTVTVSS
VL: DIQMTQSPSSLSASVGDRVTITCKASQNVGFNVAWYQQKPGKSPKALIYSASYRYSGVPSRFSGSGSGTDFTLTISSLQPEDFAEYFCQQYNWYPFTFGQGTKLEIKR
modifications: synthon ZZ on reduced interchain Cys
For B9, the “EC50 nM H1650 (tumor cell cytotoxicity)” value in assay [6] stood at 0.42 nM.

B10: huAb13v1-WD (antibody, human IgG1, kappa, L234A L235A, V domains shown)
VH: EVQLQESGPGLVKPSETLSLTCAVTGYSITSGYSWHWIRQFPGNGLEWMGYIHSSGSTNYNPSLKSRISISRDTSKNQFFLKLSSVTAADTAVYYCAGYDDYFEYWGQGTTVTVSS
VL: DIQMTQSPSSLSASVGDRVTITCKASQNVGFNVAWYQQKPGKSPKALIYSASYRYSGVPSRFSGSGSGTDFTLTISSLQPEDFAEYFCQQYNWYPFTFGQGTKLEIKR
modifications: synthon WD on reduced interchain Cys
Consider B10, for which the “EC50 nM H1650 (tumor cell cytotoxicity)” value in assay [6] turned out to be 0.45 nM.

B11: huAb13v1-LB (antibody, human IgG1, kappa, L234A L235A, V domains shown)
VH: EVQLQESGPGLVKPSETLSLTCAVTGYSITSGYSWHWIRQFPGNGLEWMGYIHSSGSTNYNPSLKSRISISRDTSKNQFFLKLSSVTAADTAVYYCAGYDDYFEYWGQGTTVTVSS
VL: DIQMTQSPSSLSASVGDRVTITCKASQNVGFNVAWYQQKPGKSPKALIYSASYRYSGVPSRFSGSGSGTDFTLTISSLQPEDFAEYFCQQYNWYPFTFGQGTKLEIKR
modifications: synthon LB on reduced interchain Cys
For the molecule B11, in assay [6], the “EC50 nM H1650 (tumor cell cytotoxicity)” value was > 133 nM.

B12: huAb13v1-ZT (antibody, human IgG1, kappa, L234A L235A, V domains shown)
VH: EVQLQESGPGLVKPSETLSLTCAVTGYSITSGYSWHWIRQFPGNGLEWMGYIHSSGSTNYNPSLKSRISISRDTSKNQFFLKLSSVTAADTAVYYCAGYDDYFEYWGQGTTVTVSS
VL: DIQMTQSPSSLSASVGDRVTITCKASQNVGFNVAWYQQKPGKSPKALIYSASYRYSGVPSRFSGSGSGTDFTLTISSLQPEDFAEYFCQQYNWYPFTFGQGTKLEIKR
modifications: synthon ZT on reduced interchain Cys
For B12, the “EC50 nM H1650 (tumor cell cytotoxicity)” value in assay [6] is 0.3 nM.

For the origin of these results see patent US20170355769A1 (AbbVie / Abbott, published 2017).
